Measurements: patent publication US20040258682A1
Blank lines part the entries; values can stand above or below the molecule they belong to.

Tests used:
[1] = biological target: CD22, the LL2 antigen on the surface of Raji B-lymphoma cells (UniProt P20273); assay: Raji cell binding assay
[2] = biological target: CD22, the LL2 antigen on the surface of Raji B-lymphoma cells (UniProt P20273); assay: cell-based or functional assay
[3] = biological target: CD22, the LL2 antigen on the surface of Raji B-lymphoma cells (UniProt P20273); assay: cell surface binding assay, calculated from ID50 values
[4] = biological target: WN, LL2 anti-idiotype antibody; assay: WN competitive blocking assay, F(ab′)2 competing with mLL2; set-up: unit not given beside the values
[5] = biological target: WN, LL2 anti-idiotype antibody; assay: WN competitive blocking assay, from ID50 against unmodified control F(ab′)2

- immunoreactivity (% of control values) [1]: 80%
Molecule: DOX-LL2 (doxorubicin-dextran-LL2 F(ab′)2 conjugate of Example 9)

- rate of antibody internalization (Ke) by Raji cells [2]: 0.122
Molecule: cLL2Q (chimeric LL2 with the NVT to QVT mutation in VK FR1) (antibody)

- Immunoreactivity (%), cell binding [3]: 100%
Molecule: mLL2 F(ab′)2 fragment

- Immunoreactivity (%), cell binding [3]: 41.9%
Molecule: mLL2 F(ab′)2 fragment conjugated with dextran-DOX at the VK-appended carbohydrate

- rate of antibody internalization (Ke) by Raji cells [2]: 0.107
Molecule: murine LL2 monoclonal antibody

- ID50 [4]: 0.384
- Immunoreactivity, % of hLL2 [5]: 100%
B1: hLL2 F(ab′)2 fragment (protein, INN chains, looked up)
VH: QVQLVQSGAEVKKPGSSVKVSCKASGYTFTSYWLHWVRQAPGQGLEWIGYINPRNDYTEYNQNFKDKATITADESTNTAYMELSSLRSEDTAFYFCARRDITTFYWGQGTTVTVSS
VL: DIQLTQSPSSLSASVGDRVTMSCKSSQSVLYSANHKNYLAWYQQKPGKAPKLLIYWASTRESGVPSRFSGSGSGTDFTFTISSLQPEDIATYYCHQYLSSWTFGGGTKLEIK
modifications: F(ab')2
